Test system: Escherichia coli TOP10
Experiment: shrunken log2 fold change of peptide-encoding DNA abundance (4.5 h post-induction vs induction); higher = less antimicrobial activity (less host growth inhibition)
Settings: time post-induction: 4.5 h; library: site-saturation at positions 5, 18, 19, 20
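Also: peptides expressed intracellularly from a pBAD plasmid library in pooled LB shake-flask culture, induced with 0.3% L-arabinose, DNA abundance read by NGS, three biological replicates, DESeq2 with apeglm shrinkage.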

Sequence: RRIRMRPPRLPRPRPRPQVVPRP
- shrunken log2 fold change: 0.0936

Sequence: RRIRDRPPRLPRPRPRPTDFPRP
- shrunken log2 fold change: -0.0352

Sequence: RRIRYRPPRLPRPRPRPATKPRP
- shrunken log2 fold change: 0.171

Sequence: RRIRIRPPRLPRPRPRPAAIPRP
- shrunken log2 fold change: -0.199

Sequence: RRIRNRPPRLPRPRPRPVRDPRP
- shrunken log2 fold change: 0.177

Sequence: RRIRQRPPRLPRPRPRPCLDPRP
- shrunken log2 fold change: -0.0986

Sequence: RRIRRRPPRLPRPRPRPQKLPRP
- shrunken log2 fold change: 0.102

Sequence: RRIRYRPPRLPRPRPRPVHLPRP
- shrunken log2 fold change: -0.328

Sequence: RRIRDRPPRLPRPRPRPSMVPRP
- shrunken log2 fold change: -0.24

Sequence: RRIRHRPPRLPRPRPRPCHTPRP
- shrunken log2 fold change: -0.0375

Sequence: RRIRARPPRLPRPRPRPSRPPRP
- shrunken log2 fold change: 0.612

Sequence: RRIRNRPPRLPRPRPRPVYAPRP
- shrunken log2 fold change: -0.128

Sequence: RRIRPRPPRLPRPRPRPYYQPRP
- shrunken log2 fold change: -0.496

Sequence: RRIRDRPPRLPRPRPRPYPLPRP
- shrunken log2 fold change: 0.215

Sequence: RRIRTRPPRLPRPRPRPCWPPRP
- shrunken log2 fold change: 0.0465

Sequence: RRIRRRPPRLPRPRPRPAQWPRP
- shrunken log2 fold change: 0.912

Sequence: RRIRGRPPRLPRPRPRPKGRPRP
- shrunken log2 fold change: 0.792

Sequence: RRIRHRPPRLPRPRPRPGGPPRP
- shrunken log2 fold change: -0.355

Sequence: RRIRMRPPRLPRPRPRPSKAPRP
- shrunken log2 fold change: 0.455

Sequence: RRIRWRPPRLPRPRPRPECCPRP
- shrunken log2 fold change: 1.22

Sequence: RRIRCRPPRLPRPRPRPCRCPRP
- shrunken log2 fold change: -0.389

Sequence: RRIRLRPPRLPRPRPRPMLTPRP
- shrunken log2 fold change: 0.0606

Sequence: RRIRYRPPRLPRPRPRPPNHPRP
- shrunken log2 fold change: -0.626

Sequence: RRIRNRPPRLPRPRPRPSYYPRP
- shrunken log2 fold change: -0.877

Sequence: RRIRVRPPRLPRPRPRPKMTPRP
- shrunken log2 fold change: -0.0628

Sequence: RRIRGRPPRLPRPRPRPHSKPRP
- shrunken log2 fold change: 0.205

Sequence: RRIRWRPPRLPRPRPRPEPTPRP
- shrunken log2 fold change: 0.857

Sequence: RRIRSRPPRLPRPRPRPVCCPRP
- shrunken log2 fold change: 0.183

Sequence: RRIRLRPPRLPRPRPRPQLQPRP
- shrunken log2 fold change: 0.037

Sequence: RRIRCRPPRLPRPRPRPSLYPRP
- shrunken log2 fold change: -0.518

Sequence: RRIRTRPPRLPRPRPRPDGTPRP
- shrunken log2 fold change: -0.208

Sequence: RRIRPRPPRLPRPRPRPQANPRP
- shrunken log2 fold change: -0.137

Sequence: RRIRWRPPRLPRPRPRPIRIPRP
- shrunken log2 fold change: -0.324

Sequence: RRIRGRPPRLPRPRPRPVMMPRP
- shrunken log2 fold change: 0.0154

Sequence: RRIRSRPPRLPRPRPRPEEHPRP
- shrunken log2 fold change: -0.0107

Sequence: RRIRSRPPRLPRPRPRPYAPPRP
- shrunken log2 fold change: -0.205

Sequence: RRIRQRPPRLPRPRPRPTRIPRP
- shrunken log2 fold change: 0.0389

Sequence: RRIRFRPPRLPRPRPRPFCYPRP
- shrunken log2 fold change: -0.372

Sequence: RRIRCRPPRLPRPRPRPLGGPRP
- shrunken log2 fold change: 0.281

Sequence: RRIRTRPPRLPRPRPRPFPVPRP
- shrunken log2 fold change: -0.177

Sequence: RRIRTRPPRLPRPRPRPVHVPRP
- shrunken log2 fold change: 0.039

Sequence: RRIRARPPRLPRPRPRPFFGPRP
- shrunken log2 fold change: 0.349

Sequence: RRIRVRPPRLPRPRPRPHNVPRP
- shrunken log2 fold change: -0.859

Sequence: RRIRYRPPRLPRPRPRPTAMPRP
- shrunken log2 fold change: 0.133

Sequence: RRIRDRPPRLPRPRPRPQHMPRP
- shrunken log2 fold change: -0.11

Sequence: RRIRIRPPRLPRPRPRPKYDPRP
- shrunken log2 fold change: -0.51

Sequence: RRIRWRPPRLPRPRPRPKPRPRP
- shrunken log2 fold change: 0.236

Sequence: RRIRKRPPRLPRPRPRPLHEPRP
- shrunken log2 fold change: 1.06

Sequence: RRIRVRPPRLPRPRPRPFEYPRP
- shrunken log2 fold change: -0.151

Sequence: RRIRCRPPRLPRPRPRPSFIPRP
- shrunken log2 fold change: -0.811

Sequence: RRIRTRPPRLPRPRPRPAVGPRP
- shrunken log2 fold change: 0.532

Sequence: RRIRMRPPRLPRPRPRPGSCPRP
- shrunken log2 fold change: 0.29

Sequence: RRIRFRPPRLPRPRPRPKWDPRP
- shrunken log2 fold change: 0.117

Sequence: RRIRCRPPRLPRPRPRPLTCPRP
- shrunken log2 fold change: -0.184

Sequence: RRIRKRPPRLPRPRPRPYKQPRP
- shrunken log2 fold change: -0.0754

Sequence: RRIRWRPPRLPRPRPRPTFCPRP
- shrunken log2 fold change: 0.478

Sequence: RRIRQRPPRLPRPRPRPFAHPRP
- shrunken log2 fold change: -0.0959

Sequence: RRIRVRPPRLPRPRPRPFNYPRP
- shrunken log2 fold change: -0.975

Sequence: RRIRYRPPRLPRPRPRPLWGPRP
- shrunken log2 fold change: -0.203

Sequence: RRIRERPPRLPRPRPRPQWTPRP
- shrunken log2 fold change: -0.0833

Sequence: RRIRARPPRLPRPRPRPIWNPRP
- shrunken log2 fold change: -0.0575

Sequence: RRIRPRPPRLPRPRPRPGRHPRP
- shrunken log2 fold change: -0.166

Sequence: RRIRYRPPRLPRPRPRPLKHPRP
- shrunken log2 fold change: -1.82

Sequence: RRIRHRPPRLPRPRPRPSRDPRP
- shrunken log2 fold change: 0.234

Sequence: RRIRKRPPRLPRPRPRPKLVPRP
- shrunken log2 fold change: 0.0448

Sequence: RRIRMRPPRLPRPRPRPDECPRP
- shrunken log2 fold change: 2.8

Sequence: RRIRARPPRLPRPRPRPTYVPRP
- shrunken log2 fold change: 0.504

Sequence: RRIRWRPPRLPRPRPRPHNDPRP
- shrunken log2 fold change: -0.324

Sequence: RRIRLRPPRLPRPRPRPELAPRP
- shrunken log2 fold change: 0.0176

Sequence: RRIRKRPPRLPRPRPRPQVMPRP
- shrunken log2 fold change: -0.162

Sequence: RRIRYRPPRLPRPRPRPKQHPRP
- shrunken log2 fold change: -0.304

Sequence: RRIRHRPPRLPRPRPRPWTRPRP
- shrunken log2 fold change: -0.0761

Sequence: RRIRCRPPRLPRPRPRPGNHPRP
- shrunken log2 fold change: -0.587

Sequence: RRIRPRPPRLPRPRPRPMCDPRP
- shrunken log2 fold change: 0.164

Sequence: RRIRLRPPRLPRPRPRPMNSPRP
- shrunken log2 fold change: -0.406

Sequence: RRIRYRPPRLPRPRPRPTYAPRP
- shrunken log2 fold change: 3.45

Sequence: RRIRHRPPRLPRPRPRPLIRPRP
- shrunken log2 fold change: -0.217

Sequence: RRIRGRPPRLPRPRPRPVIFPRP
- shrunken log2 fold change: 0.598

Sequence: RRIRKRPPRLPRPRPRPCSPPRP
- shrunken log2 fold change: -0.102

Sequence: RRIRGRPPRLPRPRPRPIVDPRP
- shrunken log2 fold change: 0.0357

Sequence: RRIRDRPPRLPRPRPRPWTYPRP
- shrunken log2 fold change: -0.834

Sequence: RRIRSRPPRLPRPRPRPKKMPRP
- shrunken log2 fold change: -0.178

Sequence: RRIRMRPPRLPRPRPRPMLWPRP
- shrunken log2 fold change: 0.19

Sequence: RRIRSRPPRLPRPRPRPGSTPRP
- shrunken log2 fold change: 0.0972

Sequence: RRIRCRPPRLPRPRPRPPQEPRP
- shrunken log2 fold change: -0.069

Sequence: RRIRRRPPRLPRPRPRPAHKPRP
- shrunken log2 fold change: 0.386

Sequence: RRIRQRPPRLPRPRPRPLTWPRP
- shrunken log2 fold change: -0.21

Sequence: RRIRPRPPRLPRPRPRPPQFPRP
- shrunken log2 fold change: 0.297

Sequence: RRIRWRPPRLPRPRPRPVRDPRP
- shrunken log2 fold change: 0.687

Sequence: RRIRIRPPRLPRPRPRPWRSPRP
- shrunken log2 fold change: 0.00683

Sequence: RRIRSRPPRLPRPRPRPIDLPRP
- shrunken log2 fold change: -0.546

Sequence: RRIRARPPRLPRPRPRPQYQPRP
- shrunken log2 fold change: -0.243

Sequence: RRIRARPPRLPRPRPRPNWEPRP
- shrunken log2 fold change: -0.0132

Sequence: RRIRCRPPRLPRPRPRPYKNPRP
- shrunken log2 fold change: -0.984

Sequence: RRIRLRPPRLPRPRPRPGFAPRP
- shrunken log2 fold change: 0.36

Sequence: RRIRNRPPRLPRPRPRPKRCPRP
- shrunken log2 fold change: 0.406

Sequence: RRIRPRPPRLPRPRPRPAFPPRP
- shrunken log2 fold change: 0.409

Sequence: RRIRGRPPRLPRPRPRPEYWPRP
- shrunken log2 fold change: 1.03

Sequence: RRIRERPPRLPRPRPRPDVIPRP
- shrunken log2 fold change: -0.502

Sequence: RRIRNRPPRLPRPRPRPAKHPRP
- shrunken log2 fold change: 0.027

Sequence: RRIRHRPPRLPRPRPRPQTNPRP
- shrunken log2 fold change: -0.633

Sequence: RRIRFRPPRLPRPRPRPKTIPRP
- shrunken log2 fold change: -0.223

Sequence: RRIRWRPPRLPRPRPRPNPNPRP
- shrunken log2 fold change: 0.055

Sequence: RRIRPRPPRLPRPRPRPIGYPRP
- shrunken log2 fold change: -0.0758

Sequence: RRIRVRPPRLPRPRPRPWYPPRP
- shrunken log2 fold change: -0.884

Sequence: RRIRERPPRLPRPRPRPARAPRP
- shrunken log2 fold change: 0.522

Sequence: RRIRWRPPRLPRPRPRPPCSPRP
- shrunken log2 fold change: -0.00461

Sequence: RRIRPRPPRLPRPRPRPVPFPRP
- shrunken log2 fold change: -0.303

Sequence: RRIRSRPPRLPRPRPRPIWRPRP
- shrunken log2 fold change: 0.639

Sequence: RRIRLRPPRLPRPRPRPQTCPRP
- shrunken log2 fold change: -0.28

Sequence: RRIRWRPPRLPRPRPRPMMTPRP
- shrunken log2 fold change: 0.0544

Sequence: RRIRFRPPRLPRPRPRPTVIPRP
- shrunken log2 fold change: -0.371

Sequence: RRIRKRPPRLPRPRPRPVETPRP
- shrunken log2 fold change: 0.416

Sequence: RRIRWRPPRLPRPRPRPFIVPRP
- shrunken log2 fold change: -0.325

Sequence: RRIRYRPPRLPRPRPRPLDRPRP
- shrunken log2 fold change: -0.182

Sequence: RRIRYRPPRLPRPRPRPSRAPRP
- shrunken log2 fold change: -0.113

Sequence: RRIRMRPPRLPRPRPRPCIYPRP
- shrunken log2 fold change: 0.0933

Sequence: RRIRPRPPRLPRPRPRPLIRPRP
- shrunken log2 fold change: -0.218

Sequence: RRIRYRPPRLPRPRPRPFSDPRP
- shrunken log2 fold change: -0.03

Sequence: RRIRRRPPRLPRPRPRPMLFPRP
- shrunken log2 fold change: 0.263

Sequence: RRIRNRPPRLPRPRPRPQYLPRP
- shrunken log2 fold change: -0.123

Sequence: RRIRARPPRLPRPRPRPNWPPRP
- shrunken log2 fold change: 0.0205

Sequence: RRIRSRPPRLPRPRPRPNINPRP
- shrunken log2 fold change: -0.612

Sequence: RRIRNRPPRLPRPRPRPYALPRP
- shrunken log2 fold change: -0.399

Sequence: RRIRYRPPRLPRPRPRPQNTPRP
- shrunken log2 fold change: -1.07

Sequence: RRIRARPPRLPRPRPRPEHLPRP
- shrunken log2 fold change: 0.108

Sequence: RRIRTRPPRLPRPRPRPRMVPRP
- shrunken log2 fold change: 0.0186

Sequence: RRIRHRPPRLPRPRPRPDVFPRP
- shrunken log2 fold change: -0.37

Sequence: RRIRKRPPRLPRPRPRPCFFPRP
- shrunken log2 fold change: 0.113

Sequence: RRIRKRPPRLPRPRPRPYENPRP
- shrunken log2 fold change: -0.517

Sequence: RRIRGRPPRLPRPRPRPIDKPRP
- shrunken log2 fold change: 1.2

Sequence: RRIRIRPPRLPRPRPRPCTYPRP
- shrunken log2 fold change: -0.0592

Sequence: RRIRKRPPRLPRPRPRPDCWPRP
- shrunken log2 fold change: 0.825

Sequence: RRIRVRPPRLPRPRPRPMISPRP
- shrunken log2 fold change: -0.237

Sequence: RRIRNRPPRLPRPRPRPDFNPRP
- shrunken log2 fold change: -0.186

Sequence: RRIRIRPPRLPRPRPRPYHCPRP
- shrunken log2 fold change: -0.0272

Sequence: RRIRERPPRLPRPRPRPHYEPRP
- shrunken log2 fold change: -0.231

Sequence: RRIRGRPPRLPRPRPRPGPSPRP
- shrunken log2 fold change: 1.05

Sequence: RRIRRRPPRLPRPRPRPITAPRP
- shrunken log2 fold change: 0.148

Sequence: RRIRKRPPRLPRPRPRPWIWPRP
- shrunken log2 fold change: 1.96

Sequence: RRIRLRPPRLPRPRPRPASNPRP
- shrunken log2 fold change: -0.124

Sequence: RRIRARPPRLPRPRPRPRHQPRP
- shrunken log2 fold change: 0.178

Sequence: RRIRDRPPRLPRPRPRPWIEPRP
- shrunken log2 fold change: 0.135

Sequence: RRIRMRPPRLPRPRPRPAKNPRP
- shrunken log2 fold change: 0.816

Sequence: RRIRRRPPRLPRPRPRPHTYPRP
- shrunken log2 fold change: 0.573

Sequence: RRIRCRPPRLPRPRPRPKNFPRP
- shrunken log2 fold change: -0.555

Sequence: RRIRMRPPRLPRPRPRPDTSPRP
- shrunken log2 fold change: 1.47

Sequence: RRIRCRPPRLPRPRPRPQVQPRP
- shrunken log2 fold change: 0.0244

Sequence: RRIRTRPPRLPRPRPRPRRKPRP
- shrunken log2 fold change: 0.0652

Sequence: RRIRLRPPRLPRPRPRPQMQPRP
- shrunken log2 fold change: 0.017

From the supplement of paper PMC9112550, “Optimization of the antimicrobial peptide Bac7 by deep mutational scanning” (BMC Biology, 2022)
